Data on 11 molecules can be found in patent publication US8163700B2, “Inhibitors of myelin-associated glycoprotein (MAG) activity for regulating neural growth and regeneration” (Research Foundation of City University of New York, priority 2002, dated 2012).

Residue numbers refer to the chain shown, from its start. Names may count otherwise.

The subject of assay [1] is wild-type MAG-expressing cells. Briefly: Neurite outgrowth on MAG-expressing cells in the presence of MAG, Nogo and OMgp peptides (Example 6). It counts as cell-based. As to conditions: tested as described in Example 5; example written in present tense. The source says: Peptides corresponding to amino acid residues […] of MAG (MAG(343-371)), amino acid residues 363-397 (MAG(363-397)), amino acid residues 394-428 (MAG(394-428)), amino acid residues 422-451 (MAG(422-451)), amino acid residues 442-471 (MAG(442-471)), and amino acid residues 461-498 (MAG(461-498)) were synthesized. Peptides were obtained from SynPep Corp. (Dublin, Calif.). MAG(343-371), MAG(363-397) and MAG(394-428) correspond to amino acid residues from the Ig4 domain of MAG. MAG(422-451), MAG(442-471) and MAG(461-498) corresponds to amino acid residues from the Ig5 domain of MAG. […] Results are shown in FIG. 4 (and are represented as number of neurons with processes longer than 2-times the cell diameter). […] Results are shown in FIG. 5 (and are represented as average neurite length for 180-200 neurons).
Peptides corresponding to MAG amino acid residues 437-441 (M437), 446-455 (M446), 450-455 (M450), 466-471 (M466); and 472-477 (M472) are constructed and tested in neurite outgrowth assays as described in Example 5. (See peptides in FIG. 18).
Peptides corresponding to Nogo-66 amino acid residues 13-17 (N13), 22-31(N22-1), 22-34 (N22-2), 26-31 (N26-1); 26-34 (N26-2); 9-33 (N-9-1); 9-34 (N-9-2); 38-62 (N38); 42-47 (N42); and 48-53 (N48) are also constructed and tested in neurite outgrowth assays as described in Example 5.
Peptides corresponding to OMgp amino acid residues 206-210 (O206), 215-224 (O215), 219-224 (O219), 202-226 (O202); 231-255 (O231), 235-240 (O235) 241-246 (O241) are constructed and tested in neurite outgrowth assays as described in Example 5.

The next assay has as its system cerebellar neurons. Briefly: Neurite outgrowth on L1-Fc substrate in the presence of soluble MAG-Fc chimeras (FIG. 3). The assay is classed as cell-based. The conditions noted are these: soluble protein 25 μg/ml, 18 hours, compared to control chimera. The protocol:
FIG. 3 Inhibition of neurite outgrowth from cerebellar neurons by MAG-Fc Derivatives Cerebellar neurons were isolated (Example 1) and plated onto a growth promoting substrate of L1 protein (Example 4). A control MUC-Fc fusion (clear bar), wild-type MAG-Fc (striped bar) and MAG-Fc derivatives having point mutations in MAG Ig-like domains 4 or 5 (grey bars) were constructed (Example 4) and added in soluble form to neurons (25 μg/ml). After 18 hours, cultures were fixed and stained for GAP-43 antigen. Neurite length was measured and the average length was calculated for 180-200 neurons (+/−SEM).
Individual wells of an eight-chamber tissue culture plastic slide (Lab-Tek, Nuc. Inc.) were incubated with 0.3 nil of 16.6 μg/ml poly-1-lysine in sterile water for at least one hour under sterile conditions. Each well was washed twice with 400 μl of a 0.1M sodium bicarbonate solution, pH 9.6, and then received 0.3 ml of 0.1M sodium bicarbonate solution, pH 9.6, containing 15 μg/ml goat anti-human IgG (Fc-specific) monoclonal antibody (Sigma). The wells were incubated for 2 hours (h) at 37° C., and washed three times with 0.4 ml of ice-cold DMEM. Each well then received 0.3 nil of DMEM containing 40 μg/ml of L1-Fc and was incubated for 2-4 h at 37° C. The welts were washed twice DMEM.
Cerebellar neurons (post-natal days 2-7) were dissociated by trypsinization as described in Example 1, except that the dissociated neurons were resuspended in 5 ml of SATO medium containing 2% dialyzed FBS. To an individual well coated with a monolayer of L1-Fc as described above, 5.0×10^4 cerebellar neurons were added, followed by addition of one of the mutant MAG-Fc or MUC18-Fc chimeric soluble protein described above at a concentration of 25 μg/ml. Neurons were cultured for 18 hours at 37° C., and then fixed and stained for GAP43 essentially as described in Example 2. Neurite length was measured for 180-200 neurons.

As for “O219: peptide of OMgp amino acid residues 219-224 (SEQ ID NO: 37) (EITLHN)”, in assay [1], the “effect on the ability of wild-type MAG-expressing cells to inhibit neurite outgrowth” value was “reduce the ability of the wild-type MAG-expressing cells to inhibit neurite outgrowth”. Still for that read-out and setting: next, “O231: peptide of OMgp amino acid residues 231-255 (SEQ ID NO: 39) (HKQNITYLLKWVMETKAHVIGTPCS)”: “reduce the ability of the wild-type MAG-expressing cells to inhibit neurite outgrowth”; “O235: peptide of OMgp amino acid residues 235-240 (SEQ ID NO: 40) (ITYLLK)”: “reduce the ability of the wild-type MAG-expressing cells to inhibit neurite outgrowth”.

With “O241: peptide of OMgp amino acid residues 241-246 (SEQ ID NO: 41) (WVMETK)”, in assay [1], the “effect on the ability of wild-type MAG-expressing cells to inhibit neurite outgrowth” value was “reduce the ability of the wild-type MAG-expressing cells to inhibit neurite outgrowth”.

B1: MAG(L346D)-Fc: murine MAG-Fc with point mutation L346D, Ig domain 4 (protein, UniProt P20917 20-516, looked up, variant L346D)
extracellular domain: GHWGAWMPSTISAFEGTCVSIPCRFDFPDELRPAVVHGVWYFNSPYPKNYPPVVFKSRTQVVHESFQGRSRLLGDLGLRNCTLLLSTLSPELGGKYYFRGDLGGYNQYTFSEHSVLDIVNTPNIVVPPEVVAGTEVEVSCMVPDNCPELRPELSWLGHEGLGEPTVLGRLREDEGTWVQVSLLHFVPTREANGHRLGCQAAFPNTTLQFEGYASLDVKYPPVIVEMNSSVEAIEGSHVSLLCGADSNPPPLLTWMRDGMVLREAVAKSLYLDLEEVTPGEDGVYACLAENAYGQDNRTVELSVMYAPWKPTVNGTVVAVEGETVSIDCSTQSNPDPILTIFKEKQILATVIYESQLQLELPAVTPEDDGEYWCVAENQYGQRATAFNLSVEFAPIILLESHCAAARDTVQCLCVVKSNPEPSVAFELPSRNVTVNETEREFVYSERSGLLLTSILTIRGQAQAPPRVICTSRNLYGTQSLELPFQGAHRLMWAKIGP
modifications: extracellular domain Fc fusion
With B1, in the assay with cerebellar neurons, the “inhibition of neurite outgrowth (in words)” value (“inhibition” for short) is listed as “inhibited neurite outgrowth as effectively as MAG-Fc”.

B2: MAG(E410K)-Fc: murine MAG-Fc with point mutation E410K, Ig domain 4/5 (protein, UniProt P20917 20-516, looked up, variant E410K)
extracellular domain: B1 extracellular domain with D327L, E391K
modifications: extracellular domain Fc fusion
For B2, in the assay with cerebellar neurons, the “inhibition” value is “inhibited neurite outgrowth as effectively as MAG-Fc”.

B3: MAG(R491E)-Fc: murine MAG-Fc with point mutation R491E, Ig domain 5/TM (protein, UniProt P20917 20-516, looked up, variant R491E)
extracellular domain: B1 extracellular domain with D327L, R472E
modifications: extracellular domain Fc fusion
notes: murine MAG-Fc with point mutation R491E, Ig domain 5/TM
As to B3, the “inhibition” value in the assay with cerebellar neurons is given as “none”.

B4: MAG(L431D)-Fc: murine MAG-Fc with point mutation L431D, Ig domain 5 (protein, listed as Mus sp.)
chain: MIFLATLPLFWIMISASRGGHWGAWMPSTISAFEGTCVSIPCRFDFPDELRPAVVHGVWYFNSPYPKNYPPVVFKSRTQVVHESFQGRSRLLGDLGLRNCTLLLSTLSPELGGKYYFRGDLGGYNQYTFSEHSVLDIVNTPNIVVPPEVVAGTEVEVSCMVPDNCPELRPELSWLGHEGLGEPTVLGRLREDEGTWVQVSLLHFVPTREANGHRLGCQAAFPNTTLQFEGYASLDVKYPPVIVEMNSSVEAIEGSHVSLLCGADSNPPPLLTWMRDGMVLREAVAKSLYLDLEEVTPGEDGVYACLAENAYGQDNRTVELSVMYAPWKPTVNGTVVAVEGETVSILCSTQSNPDPILTIFKEKQILATVIYESQLQLELPAVTPEDDGEYWCVAENQYGQRATAFNLSVEFAPIILLESHCAAARDTVQCDCVVKSNPEPSVAFELPSRNVTVNETEREFVYSERSGLLLTSILTIRGQAQAPPRVICTSRNLYGTQSLELPFQGAHRLMWAKIGPVGAVVAFAILIAIVCYITQTRRKKNVTESSSFSGGDNPHVLYSPEFRISGAPDKYESREVSTRDCH
modifications: Fc fusion
As for B4, in the assay on cerebellar neurons, the “inhibition” value is “none”.

B5: MAG(R485D)-Fc: murine MAG-Fc with point mutation R485D, Ig domain 5 (protein, listed as Mus sp.)
chain: B4 chain with D431L, R485D
modifications: Fc fusion
With B5, in the assay on cerebellar neurons, the “inhibition” value is listed as “none”.

B6: MAG(E445K)-Fc: murine MAG-Fc with point mutation E445K, Ig domain 5 (protein, listed as Mus sp.)
chain: B4 chain with D431L, E445K
modifications: Fc fusion
Consider B6, for which the “inhibition” value with cerebellar neurons is “none”.

B7: MAG(K435E)-Fc: murine MAG-Fc with point mutation K435E, Ig domain 5 (protein, listed as Mus sp.)
chain: B4 chain with D431L, K435E
modifications: Fc fusion
B7: in the assay on cerebellar neurons, the “inhibition” value was “none”.
